# According to patent US20140030416A1:
# Tests used:
# Experiment in all cases: cell-based or functional assay
# [1] = target: porcine trypsin (porcine) (UniProt P00761)
# bovine trypsin (bovine) = bovine trypsin (bovine) (UniProt P00760)
# [2] = target: Trypsin-like protease (TL1) from Fusarium oxysporum (Fusarium oxysporum) (UniProt P35049)
# UniProt P35049, sequence (P35049 25-248 limits assumed): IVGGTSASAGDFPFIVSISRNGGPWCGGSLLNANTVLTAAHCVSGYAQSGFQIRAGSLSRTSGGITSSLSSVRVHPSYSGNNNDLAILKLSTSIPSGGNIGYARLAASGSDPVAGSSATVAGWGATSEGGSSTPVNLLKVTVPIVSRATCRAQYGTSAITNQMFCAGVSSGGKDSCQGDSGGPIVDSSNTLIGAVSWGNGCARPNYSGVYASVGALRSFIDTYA
substance,measurement,setting,value
"Bowman-Birk inhibitor (Cat # T-9777, Sigma-Aldrich) (from UniProt P01055 40-110)",% residual activity at 0.00048 mg/ml Bowman-Birk inhibitor,[1],11%
same,% residual activity at 0.00097 mg/ml Bowman-Birk inhibitor,[1],9.4%
same,% residual activity at 0.00195 mg/ml Bowman-Birk inhibitor,[1],8.3%
same,% residual activity at 0.0039 mg/ml Bowman-Birk inhibitor,[1],6.2%
same,% residual activity at 0.0078 mg/ml Bowman-Birk inhibitor,[1],3.2%
same,% residual activity at 0.0156 mg/ml Bowman-Birk inhibitor,[1],2.2%
same,% residual activity at 0.0313 mg/ml Bowman-Birk inhibitor,[1],1%
same,% residual activity at 0.0625 mg/ml Bowman-Birk inhibitor,[1],6.4%
same,% residual activity at 0.125 mg/ml Bowman-Birk inhibitor,[1],0.2%
same,% residual activity at 0.25 mg/ml Bowman-Birk inhibitor,[1],0.1%
same,% residual activity at 0.5 mg/ml Bowman-Birk inhibitor,[1],0.1%
same,% residual activity at 0.00048 mg/ml Bowman-Birk inhibitor,bovine trypsin (bovine),6.9%
same,% residual activity at 0.00097 mg/ml Bowman-Birk inhibitor,bovine trypsin (bovine),5.3%
same,% residual activity at 0.00195 mg/ml Bowman-Birk inhibitor,bovine trypsin (bovine),0.1%
same,% residual activity at 0.0039 mg/ml Bowman-Birk inhibitor,bovine trypsin (bovine),-0.4%
same,% residual activity at 0.0078 mg/ml Bowman-Birk inhibitor,bovine trypsin (bovine),0%
same,% residual activity at 0.0156 mg/ml Bowman-Birk inhibitor,bovine trypsin (bovine),-1.5%
same,% residual activity at 0.0313 mg/ml Bowman-Birk inhibitor,bovine trypsin (bovine),0.1%
same,% residual activity at 0.0625 mg/ml Bowman-Birk inhibitor,bovine trypsin (bovine),0%
same,% residual activity at 0.125 mg/ml Bowman-Birk inhibitor,bovine trypsin (bovine),0%
same,% residual activity at 0.25 mg/ml Bowman-Birk inhibitor,bovine trypsin (bovine),0%
same,% residual activity at 0.5 mg/ml Bowman-Birk inhibitor,bovine trypsin (bovine),0%
same,% residual activity at 0.00048 mg/ml Bowman-Birk inhibitor,[2],117%
same,% residual activity at 0.00097 mg/ml Bowman-Birk inhibitor,[2],111%
same,% residual activity at 0.00195 mg/ml Bowman-Birk inhibitor,[2],103%
same,% residual activity at 0.0039 mg/ml Bowman-Birk inhibitor,[2],109%
same,% residual activity at 0.0078 mg/ml Bowman-Birk inhibitor,[2],82%
same,% residual activity at 0.0156 mg/ml Bowman-Birk inhibitor,[2],61%
same,% residual activity at 0.0313 mg/ml Bowman-Birk inhibitor,[2],32%
same,% residual activity at 0.0625 mg/ml Bowman-Birk inhibitor,[2],13%
same,% residual activity at 0.125 mg/ml Bowman-Birk inhibitor,[2],5.8%
same,% residual activity at 0.25 mg/ml Bowman-Birk inhibitor,[2],2.2%
same,% residual activity at 0.5 mg/ml Bowman-Birk inhibitor,[2],0.8%
